Source: publication PMC6937562

Target: C3d (human), P01024
Test: SPR; homemade HJEM2 chip, 61 RU C3d amine-coupled; FH flowed (2 μM to 3.9 nM); Biacore T200, 25 °C, HBS-P pH 7.4; 1:1 steady-state model
Details: remark: other sources report otherwise

Sequence of C3d (human), P01024 (P01024 1002-1303): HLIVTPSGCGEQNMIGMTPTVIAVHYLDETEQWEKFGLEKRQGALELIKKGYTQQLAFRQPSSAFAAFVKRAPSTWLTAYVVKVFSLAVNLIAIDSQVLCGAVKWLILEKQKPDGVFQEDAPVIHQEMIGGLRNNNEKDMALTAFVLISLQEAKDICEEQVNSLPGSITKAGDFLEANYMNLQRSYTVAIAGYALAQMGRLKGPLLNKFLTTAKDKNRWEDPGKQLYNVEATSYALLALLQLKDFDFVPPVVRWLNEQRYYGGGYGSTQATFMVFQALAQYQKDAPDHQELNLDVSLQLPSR

Kd: 0.64 µM
B1: factor H, P08603 19-1231 (natural protein)
chain: EDCNELPPRRNTEILTGSWSDQTYPEGTQAIYKCRPGYRSLGNVIMVCRKGEWVALNPLRKCQKRPCGHPGDTPFGTFTLTGGNVFEYGVKAVYTCNEGYQLLGEINYRECDTDGWTNDIPICEVVKCLPVTAPENGKIVSSAMEPDREYHFGQAVRFVCNSGYKIEGDEEMHCSDDGFWSKEKPKCVEISCKSPDVINGSPISQKIIYKENERFQYKCNMGYEYSERGDAVCTESGWRPLPSCEEKSCDNPYIPNGDYSPLRIKHRTGDEITYQCRNGFYPATRGNTAKCTSTGWIPAPRCTLKPCDYPDIKHGGLYHENMRRPYFPVAVGKYYSYYCDEHFETPSGSYWDHIHCTQDGWSPAVPCLRKCYFPYLENGYNQNYGRKFVQGKSIDVACHPGYALPKAQTTVTCMENGWSPTPRCIRVKTCSKSSIDIENGFISESQYTYALKEKAKYQCKLGYVTADGETSGSITCGKDGWSAQPTCIKSCDIPVFMNARTKNDFTWFKLNDTLDYECHDGYESNTGSTTGSIVCGYNGWSDLPICYERECELPKIDVHLVPDRKKDQYKVGEVLKFSCKPGFTIVGPNSVQCYHFGLSPDLPICKEQVQSCGPPPELLNGNVKEKTKEEYGHSEVVEYYCNPRFLMKGPNKIQCVDGEWTTLPVCIVEESTCGDIPELEHGWAQLSSPPYYYGDSVEFNCSESFTMIGHRSITCIHGVWTQLPQCVAIDKLKKCKSSNLIILEEHLKNKKEFDHNSNIRYRCRGKEGWIHTVCINGRWDPEVNCSMAQIQLCPPPPQIPNSHNMTTTLNYRDGEKVSVLCQENYLIQEGEEITCKDGRWQSIPLCVEKIPCSQPPQIEHGTINSSRSSQESYAHGTKLSYTCEGGFRISEENETTCYMGKWSSPPQCEGLPCKSPPEISHGVVAHMSDSYQYGEEVTYKCFEGFGIDGPAIAKCLGEKWSHPPSCIKTDCLSLPSFENAIPMGEKKDVYKAGEQVTYTCATYYKMDGASNVTCINSRWTGRPTCRDTSCVNPPTVQNAYIVSRQMSKYPSGERVRYQCRSPYEMFGDEEVMCLNGNWTEPPQCKDSTGKCGPPPPIDNGDITSFPLSVYAPASSVEYQCQNLYQLEGNKRITCRNGQWSEPPKCLHPCVISREIMENYNIALRWTAKQKLYSRTGESVEFVCKRGYRLSSRSHTLRTTCWDGKLEYPTCAKR
